Measured values from publication PMC4551922, “Nucleic acid-binding specificity of human FUS protein”.
Substitutions are numbered along the chain they refer to. Like-named read-outs stand apart in the source and are kept apart here.

Tests used:
[1] = system: MS2 coat protein (bacteriophage MS2?); details: EMSA: 50 mM Tris-HCl pH 7.4, 150 mM KCl, 2 mM MgCl2, 2 mM DTT, 0.1 mg/ml yeast tRNA, 0.1 mg/ml BSA, room temperature, 30 min, trace 32P-RNA
[2] = system: MS2 coat protein (bacteriophage MS2?); details: EMSA: 50 mM Tris-HCl pH 7.4, 150 mM KCl, 2 mM MgCl2, 2 mM DTT, 0.1 mg/ml yeast tRNA, 0.1 mg/ml BSA, room temperature, 30 min, trace 32P-RNA; remark: listed apart in the source
[3] = biological target: T1, MBP-FUS (human, UniProt P35637 1-526); assay: EMSA; details: EMSA: 50 mM Tris-HCl pH 7.4, 150 mM KCl, 2 mM MgCl2, 2 mM DTT, 0.1 mg/ml yeast tRNA, 0.1 mg/ml BSA, room temperature, 30 min, trace 32P-RNA
T1 sequence (P35637 whole entry): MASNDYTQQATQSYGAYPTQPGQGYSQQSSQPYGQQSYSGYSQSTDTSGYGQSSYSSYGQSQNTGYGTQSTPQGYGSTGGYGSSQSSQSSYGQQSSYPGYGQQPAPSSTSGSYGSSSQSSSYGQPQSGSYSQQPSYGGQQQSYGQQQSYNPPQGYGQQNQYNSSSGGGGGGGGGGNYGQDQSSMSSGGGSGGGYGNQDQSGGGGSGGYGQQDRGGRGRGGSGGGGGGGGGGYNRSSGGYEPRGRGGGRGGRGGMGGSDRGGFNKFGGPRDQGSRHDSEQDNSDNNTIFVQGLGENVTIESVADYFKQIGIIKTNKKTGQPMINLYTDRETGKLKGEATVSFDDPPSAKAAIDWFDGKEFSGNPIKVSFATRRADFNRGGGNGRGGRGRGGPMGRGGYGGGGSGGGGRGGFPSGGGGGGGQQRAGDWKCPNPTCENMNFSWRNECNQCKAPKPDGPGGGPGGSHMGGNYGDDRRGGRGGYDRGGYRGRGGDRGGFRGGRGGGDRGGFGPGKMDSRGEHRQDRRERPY

[4] = biological target: T1, MBP-FUS; assay: EMSA; EMSA: 50 mM Tris-HCl pH 7.4, 150 mM KCl, 2 mM MgCl2, 2 mM DTT, 0.1 mg/ml yeast tRNA, 0.1 mg/ml BSA, room temperature, 30 min, trace 32P-RNA; details: protein: recombinant, tags: N-terminal His6-MBP (not cleaved)
[5] = biological target: MBP-LC-RRM (human, UniProt P35637 1-384); assay: as above; details: protein: recombinant, tags: N-terminal MBP, label: 32P
MBP-LC-RRM, sequence (P35637 1-384): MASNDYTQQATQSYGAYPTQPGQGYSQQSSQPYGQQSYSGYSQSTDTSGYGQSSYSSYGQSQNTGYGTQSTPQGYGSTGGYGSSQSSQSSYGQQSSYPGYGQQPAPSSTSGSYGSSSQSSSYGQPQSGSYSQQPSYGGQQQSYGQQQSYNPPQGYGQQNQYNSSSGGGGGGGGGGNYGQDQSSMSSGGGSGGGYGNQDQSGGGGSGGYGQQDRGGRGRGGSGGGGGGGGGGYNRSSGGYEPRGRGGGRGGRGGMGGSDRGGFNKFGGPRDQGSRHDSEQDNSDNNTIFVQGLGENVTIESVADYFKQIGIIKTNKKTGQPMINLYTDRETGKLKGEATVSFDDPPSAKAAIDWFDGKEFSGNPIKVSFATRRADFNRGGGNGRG

[6] = biological target: MBP-RGG-Znf-RGG (human, UniProt P35637 385-526); assay: as above; details: protein: recombinant, tags: N-terminal MBP, label: 32P
MBP-RGG-Znf-RGG, sequence (P35637 385-526): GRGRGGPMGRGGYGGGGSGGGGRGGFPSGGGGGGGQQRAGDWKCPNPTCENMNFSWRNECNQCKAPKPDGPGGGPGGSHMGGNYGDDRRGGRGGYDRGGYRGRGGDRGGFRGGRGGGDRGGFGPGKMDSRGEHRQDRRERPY

[7] = biological target: T1, MBP-FUS; assay: EMSA; weaker than full prD; similar to 3'prD; EMSA: 50 mM Tris-HCl pH 7.4, 150 mM KCl, 2 mM MgCl2, 2 mM DTT, 0.1 mg/ml yeast tRNA, 0.1 mg/ml BSA, room temperature, 30 min, trace 32P-RNA; details: protein: recombinant; tags: N-terminal His6-MBP (not cleaved); label: 32P
[8] = biological target: T1, MBP-FUS; assay: competition; cold ssDNA vs labeled prD ssRNA; EMSA: 50 mM Tris-HCl pH 7.4, 150 mM KCl, 2 mM MgCl2, 2 mM DTT, 0.1 mg/ml yeast tRNA, 0.1 mg/ml BSA, room temperature, 30 min, trace 32P-RNA; details: protein: recombinant; tags: N-terminal His6-MBP (not cleaved); chain copies: 4; label: 32P
[9] = biological target: T1, MBP-FUS; assay: EMSA; weaker than full prD; similar to 5'prD; EMSA: 50 mM Tris-HCl pH 7.4, 150 mM KCl, 2 mM MgCl2, 2 mM DTT, 0.1 mg/ml yeast tRNA, 0.1 mg/ml BSA, room temperature, 30 min, trace 32P-RNA; details: protein: recombinant; tags: N-terminal His6-MBP (not cleaved); label: 32P
[10] = chain copies: 4, label: 32P, blunt

## MBP 1-100 MS2
[1]
  Kd: 100 nM

## MS2 motif 21 nt
[2]
  Kd: 10 nM

## MBP 1-200
[3]
  Kd: 56 nM

## TERRA
[3]
  Kd: 116 nM

B1: MBP 1-10 (ssRNA)
RNA: GGGAGACCAAAACUG
[4]; label: 32P
  binding result: no binding

B2: prD RNA (ssRNA)
RNA: AUUGAGGAGCAGCAGAGAAGUUGGAGUGAAGGCAGAGAGGGGUUAAGG
[5]
  Kd: 60 ± 3 nM
[4]; label: 32P
  Kd: 97 ± 2 nM
[6]
  Kd: 81 ± 2 nM

B3: polyA 24-mer (ssRNA)
RNA: AAAAAAAAAAAAAAAAAAAAAAAA
[4]; label: 32P
  Kd: 846 nM

B4: GUGGU (ssRNA)
RNA: CAACUUAGGUGGUUGAUUUGA
[4]; label: 32P
  Kd: 980 ± 42 nM

B5: Htelo DNA (structured_DNA)
DNA: AGGGTTAGGGTTAGGGTTAGGG
[4]; label: 32P
  Kd: 730 ± 38 nM

B6: As-prD RNA (ssRNA)
RNA: CCUUAACCCCUCUCUGCCUUCACUCCAACUUCUCUGCUGCUCCUCAAU
[5]
  Kd: 280 ± 22 nM
[4]; label: 32P
  Kd: 79 ± 4 nM
[6]
  Kd: 260 ± 32 nM

B7: prD dsRNA (dsRNA)
RNA 1: B2 RNA
RNA 2: B6 RNA
[5]; blunt
  Kd: 2100 ± 60 nM
[4]; [10]
  Kd: 350 ± 38 nM
[6]; blunt
  Kd: 1100 ± 80 nM

B8: prD DNA/RNA hybrid (DNA:RNA)
DNA: ATTGAGGAGCAGCAGAGAAGTTGGAGTGAAGGCAGAGAGGGGTTAAGG
RNA: B6 RNA
[5]; blunt
  Kd: 1200 ± 250 nM
[4]; [10]
  Kd: 980 ± 100 nM
[6]; blunt
  Kd: 1100 ± 110 nM

B9: Htelo DNA neg (ssDNA)
DNA: AGGGTTAGTGTTAGTGTTAGGG
[4]; label: 32P
  Kd: 690 ± 48 nM

B10: Stem-loop (structured_RNA)
RNA: GAUUUAUCUUUAACUACUCAAGAUACUGAACAUGACA
[4]; label: 32P, hairpin
  Kd: 430 ± 28 nM

B11: Stem-loop neg (ssRNA)
RNA: B10 RNA with A20U, G22U, A23C, A25U
[4]; label: 32P
  Kd: 460 ± 39 nM

B12: 5'prD (ssRNA)
RNA: AUUGAGGAGCAGCAGAGAAGUUGG
[7]
  binding result: binds

B13: prD ssDNA (ssDNA)
DNA: B8 DNA
[8]
  binding signal: 10 fold more than ssRNA
[5]
  Kd: 220 ± 32 nM
[4]; chain copies: 4, label: 32P
  Kd: 280 ± 26 nM
[6]
  Kd: 290 ± 29 nM

B14: prD dsDNA (dsDNA)
DNA 1: B8 DNA
DNA 2: CCTTAACCCCTCTCTGCCTTCACTCCAACTTCTCTGCTGCTCCTCAAT
[5]; blunt
  Kd: 1400 ± 170 nM
[4]; [10]
  Kd: 1200 ± 110 nM
[6]; blunt
  Kd: 1000 ± 81 nM

B15: MBP 1-20 (ssRNA)
RNA: GGGAGACCAAAACUGAAGAAGGUAA
[4]; label: 32P
  binding result: binds

B16: CGCGC (ssRNA)
RNA: AGGUCUCAGUUCAUCGCGCGAGGUUAUAGU
[4]; label: 32P
  Kd: 290 ± 13 nM

B17: 3'prD (ssRNA)
RNA: AGUGAAGGCAGAGAGGGGUUAAGG
[9]
  binding result: binds

B18: GGUG neg (ssRNA)
RNA: UUGUAUUUUGAGCUAGUUUCCUCAC
[4]; label: 32P
  Kd: 840 ± 50 nM

B19: GGUG (ssRNA)
RNA: UUGUAUUUUGAGCUAGUUUGGUGAC
[4]
  Kd: 600 ± 20 nM
